Measured values published in PMC2871490 (The Journal of Biological Chemistry, 2010).

T1: His6-Daam1 NT (human, UniProt Q9Y4D1 41-477)
T1 sequence: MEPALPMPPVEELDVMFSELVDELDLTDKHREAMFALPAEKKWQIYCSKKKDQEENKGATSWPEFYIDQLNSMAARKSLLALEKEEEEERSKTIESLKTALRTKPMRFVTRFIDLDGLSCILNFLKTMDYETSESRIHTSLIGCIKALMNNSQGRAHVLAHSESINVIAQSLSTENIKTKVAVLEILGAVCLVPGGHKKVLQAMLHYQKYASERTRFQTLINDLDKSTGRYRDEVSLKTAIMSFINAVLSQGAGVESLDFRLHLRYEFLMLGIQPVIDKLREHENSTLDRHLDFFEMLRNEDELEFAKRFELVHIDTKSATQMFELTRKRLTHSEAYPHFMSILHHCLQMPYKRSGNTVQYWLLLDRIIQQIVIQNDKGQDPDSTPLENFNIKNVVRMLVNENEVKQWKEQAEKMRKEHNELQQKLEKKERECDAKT

T2: His6-Fli-I G1–6 (human, UniProt Q13045 461-1269)
T2 sequence: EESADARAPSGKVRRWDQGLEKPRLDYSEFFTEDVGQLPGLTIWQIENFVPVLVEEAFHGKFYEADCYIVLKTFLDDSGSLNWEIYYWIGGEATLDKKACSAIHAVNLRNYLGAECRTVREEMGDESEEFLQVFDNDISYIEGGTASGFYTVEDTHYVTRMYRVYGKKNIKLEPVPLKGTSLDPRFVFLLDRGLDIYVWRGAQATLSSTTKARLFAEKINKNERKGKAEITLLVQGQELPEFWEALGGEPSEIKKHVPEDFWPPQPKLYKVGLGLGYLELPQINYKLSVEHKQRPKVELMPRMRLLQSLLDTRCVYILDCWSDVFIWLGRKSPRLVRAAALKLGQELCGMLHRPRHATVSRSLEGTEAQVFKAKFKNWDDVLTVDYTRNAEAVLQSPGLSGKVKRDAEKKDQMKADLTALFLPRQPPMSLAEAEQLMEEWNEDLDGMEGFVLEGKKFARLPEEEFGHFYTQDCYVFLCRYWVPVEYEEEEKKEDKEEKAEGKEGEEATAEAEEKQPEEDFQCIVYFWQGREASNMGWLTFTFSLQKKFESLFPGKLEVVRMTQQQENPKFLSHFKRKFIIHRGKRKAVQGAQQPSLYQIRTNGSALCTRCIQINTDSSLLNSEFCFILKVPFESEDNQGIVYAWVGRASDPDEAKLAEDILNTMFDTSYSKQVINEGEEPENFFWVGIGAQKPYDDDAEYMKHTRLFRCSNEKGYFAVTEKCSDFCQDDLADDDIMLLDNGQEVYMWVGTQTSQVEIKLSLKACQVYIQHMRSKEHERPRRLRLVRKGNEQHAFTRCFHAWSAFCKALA


How the values were obtained:
Assay in all cases: pull-down
His6-Daam1 NT = molecular target: T1, His6-Daam1 NT
His6-Fli-I G1–6 = molecular target: T2, His6-Fli-I G1–6
His6-Daam1 CT = His6-Daam1 CT (human, UniProt Q9Y4D1 490-1078)
GST-Daam1 CT WT = GST-Daam1 CT WT (human, UniProt Q9Y4D1 490-1078)
GST-Daam1 CT L1040A = GST-Daam1 CT L1040A (human, UniProt Q9Y4D1 490-1078, L1040A)

| Binder | binding result (His6-Daam1 NT) | binding result (His6-Fli-I G1–6) | binding result (His6-Daam1 CT) | binding result (GST-Daam1 CT WT) | binding result (GST-Daam1 CT L1040A) |
| --- | --- | --- | --- | --- | --- |
| GST-Daam1 DAD (domain or fragment) NMRKKKEEEERRARMEAQLKEQRERERKMRKAKENSEESGEFDDLVSALRSGEVFDKDLSKLKRNRKRITNQMTDSSRERPITKLNF | binds | binds |  |  |  |
| GST-Fli-I G4–6 (domain or fragment) KKDQMKADLTALFLPRQPPMSLAEAEQLMEEWNEDLDGMEGFVLEGKKFARLPEEEFGHFYTQDCYVFLCRYWVPVEYEEEEKKEDKEEKAEGKEGEEATAEAEEKQPEEDFQCIVYFWQGREASNMGWLTFTFSLQKKFESLFPGKLEVVRMTQQQENPKFLSHFKRKFIIHRGKRKAVQGAQQPSLYQIRTNGSALCTRCIQINTDSSLLNSEFCFILKVPFESEDNQGIVYAWVGRASDPDEAKLAEDILNTMFDTSYSKQVINEGEEPENFFWVGIGAQKPYDDDAEYMKHTRLFRCSNEKGYFAVTEKCSDFCQDDLADDDIMLLDNGQEVYMWVGTQTSQVEIKLSLKACQVYIQHMRSKEHERPRRLRLVRKGNEQHAFTRCFHAWSAFCKALA |  |  | binds |  |  |

The next lines start with the values.

| binding result (His6-Daam1 NT) | binding result (His6-Fli-I G1–6) | binding result (His6-Daam1 CT) | binding result (GST-Daam1 CT WT) | binding result (GST-Daam1 CT L1040A) | Binder |
| --- | --- | --- | --- | --- | --- |
|  |  | binds |  |  | GST-Daam1 NT (domain or fragment) MEPALPMPPVEELDVMFSELVDELDLTDKHREAMFALPAEKKWQIYCSKKKDQEENKGATSWPEFYIDQLNSMAARKSLLALEKEEEEERSKTIESLKTALRTKPMRFVTRFIDLDGLSCILNFLKTMDYETSESRIHTSLIGCIKALMNNSQGRAHVLAHSESINVIAQSLSTENIKTKVAVLEILGAVCLVPGGHKKVLQAMLHYQKYASERTRFQTLINDLDKSTGRYRDEVSLKTAIMSFINAVLSQGAGVESLDFRLHLRYEFLMLGIQPVIDKLREHENSTLDRHLDFFEMLRNEDELEFAKRFELVHIDTKSATQMFELTRKRLTHSEAYPHFMSILHHCLQMPYKRSGNTVQYWLLLDRIIQQIVIQNDKGQDPDSTPLENFNIKNVVRMLVNENEVKQWKEQAEKMRKEHNELQQKLEKKERECDAKT |
|  |  | binds | binds | binds | His6-Fli-I G4–6 (domain or fragment) KKDQMKADLTALFLPRQPPMSLAEAEQLMEEWNEDLDGMEGFVLEGKKFARLPEEEFGHFYTQDCYVFLCRYWVPVEYEEEEKKEDKEEKAEGKEGEEATAEAEEKQPEEDFQCIVYFWQGREASNMGWLTFTFSLQKKFESLFPGKLEVVRMTQQQENPKFLSHFKRKFIIHRGKRKAVQGAQQPSLYQIRTNGSALCTRCIQINTDSSLLNSEFCFILKVPFESEDNQGIVYAWVGRASDPDEAKLAEDILNTMFDTSYSKQVINEGEEPENFFWVGIGAQKPYDDDAEYMKHTRLFRCSNEKGYFAVTEKCSDFCQDDLADDDIMLLDNGQEVYMWVGTQTSQVEIKLSLKACQVYIQHMRSKEHERPRRLRLVRKGNEQHAFTRCFHAWSAFCKALA |
